The values below come from PMC9482650, “Quantitative fragmentomics allow affinity mapping of interactomes” (Nature Communications, 2022).

Among the targets are HTRA1, Q92743; GRIP2_4, Q9C0E4; IL16_1, Q14005; DLG1_1, Q12959; GRIP2_7, Q9C0E4; LNX1_1, Q8TBB1; PARD3_3, Q8TEW0; FRMPD3, Q5JV73; GRID2IP_1, A4D2P6; LNX1_2, Q8TBB1; PTPN3, P26045.
What all share (test): holdup assay
Common to all, as to design: key: below the threshold = too weak to quantify, mostly under pKd 3.1 to 4

A further experiment has as its target T1, PCLO, Q9Y6V0.
T1 sequence (Q9Y6V0 4491-4600, limits assumed, looked up): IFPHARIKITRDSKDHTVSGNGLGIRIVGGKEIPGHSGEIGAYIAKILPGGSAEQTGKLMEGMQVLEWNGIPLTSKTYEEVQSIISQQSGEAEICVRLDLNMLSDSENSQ

In a further experiment the target is T2, GRIP1_3, Q9Y3R0.
T2 sequence (Q9Y3R0 247-346, limits assumed, looked up): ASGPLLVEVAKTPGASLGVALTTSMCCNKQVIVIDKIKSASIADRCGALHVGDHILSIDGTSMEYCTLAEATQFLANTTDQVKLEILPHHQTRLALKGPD

For a further experiment, the target named is T3, MPDZ_12, O75970.
T3 sequence (O75970 1857-1958, limits assumed, looked up): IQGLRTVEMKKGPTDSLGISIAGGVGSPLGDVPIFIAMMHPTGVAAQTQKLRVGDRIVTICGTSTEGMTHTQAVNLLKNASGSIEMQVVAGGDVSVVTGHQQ

In another experiment the target is T4, PTPN13_1, Q12923.
T4 sequence (Q12923 1088-1188, limits assumed, looked up): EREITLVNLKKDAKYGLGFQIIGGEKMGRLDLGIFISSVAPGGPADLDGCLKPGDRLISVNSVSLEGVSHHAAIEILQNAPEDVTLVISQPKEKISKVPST

The next experiment concerns the target T5, APBA3_1, O96018.
T5 sequence (O96018 389-490, limits assumed, looked up): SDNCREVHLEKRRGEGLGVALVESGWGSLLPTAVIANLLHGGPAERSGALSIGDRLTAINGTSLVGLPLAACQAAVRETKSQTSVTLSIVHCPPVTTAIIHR

The next experiment addresses T6, LNX2_2, Q8N448.
T6 sequence (Q8N448 334-432, limits assumed, looked up): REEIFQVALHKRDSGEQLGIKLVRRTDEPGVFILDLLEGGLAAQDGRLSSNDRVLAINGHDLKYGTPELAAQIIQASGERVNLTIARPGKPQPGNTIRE

The target in another experiment is T7, LNX2_3, Q8N448.
T7 sequence (Q8N448 463-564, limits assumed, looked up): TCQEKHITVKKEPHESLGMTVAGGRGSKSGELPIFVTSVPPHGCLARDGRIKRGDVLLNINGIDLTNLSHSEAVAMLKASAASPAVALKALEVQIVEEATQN

Another experiment concerns the target T8, LIN7C, Q9NUP9.
T8 sequence (Q9NUP9 88-185, limits assumed, looked up): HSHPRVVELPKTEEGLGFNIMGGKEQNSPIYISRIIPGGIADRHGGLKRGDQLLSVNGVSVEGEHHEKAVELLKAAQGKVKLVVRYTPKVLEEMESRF

In the next experiment the target is T9, APBA2_2, Q99767.
T9 sequence (Q99767 654-744, limits assumed, looked up): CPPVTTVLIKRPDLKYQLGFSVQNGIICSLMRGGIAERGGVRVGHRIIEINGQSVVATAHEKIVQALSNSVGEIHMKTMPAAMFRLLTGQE

A further experiment addresses T10, SNTG1, Q9NSN8.
T10 sequence (Q9NSN8 52-150, limits assumed, looked up): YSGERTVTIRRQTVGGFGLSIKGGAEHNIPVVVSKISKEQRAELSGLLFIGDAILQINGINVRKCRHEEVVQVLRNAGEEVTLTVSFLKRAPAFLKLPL

The next experiment addresses T11, SYNJ2BP, P57105.
T11 sequence (P57105 8-110, limits assumed, looked up): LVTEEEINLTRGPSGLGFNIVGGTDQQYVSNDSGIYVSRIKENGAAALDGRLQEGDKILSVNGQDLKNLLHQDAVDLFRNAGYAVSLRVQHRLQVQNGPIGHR

The target in another experiment is T12, ARHGAP21, Q5T5U3.
T12 sequence (Q5T5U3 45-169, limits assumed, looked up): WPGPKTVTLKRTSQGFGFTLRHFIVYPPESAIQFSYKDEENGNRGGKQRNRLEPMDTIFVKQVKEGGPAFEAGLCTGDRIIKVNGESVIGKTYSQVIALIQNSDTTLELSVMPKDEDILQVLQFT

Another experiment has as its target T13, TJP3_3, O95049.
T13 sequence (O95049 375-456, limits assumed, looked up): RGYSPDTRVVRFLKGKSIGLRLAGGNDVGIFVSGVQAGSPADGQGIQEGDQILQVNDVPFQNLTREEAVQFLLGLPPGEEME

[1] abbreviates: plain residues with an end cap or a label only (N-terminal biotin on a linker: ttds).
The mark [2] stands for this setting: plain residues with an end cap or a label only (N-terminal biotin on a linker: ado-ado).
Setting [3] is: plain residues with an end cap or a label only (N-terminal biotin on a linker: ahx).

Sequence of LNX1_1, Q8TBB1 (Q8TBB1 261-371): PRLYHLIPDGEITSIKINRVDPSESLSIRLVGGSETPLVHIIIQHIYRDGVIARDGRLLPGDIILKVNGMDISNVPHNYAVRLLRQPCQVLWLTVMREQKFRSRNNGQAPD
Sequence of PARD3_3, Q8TEW0 (Q8TEW0 582-685): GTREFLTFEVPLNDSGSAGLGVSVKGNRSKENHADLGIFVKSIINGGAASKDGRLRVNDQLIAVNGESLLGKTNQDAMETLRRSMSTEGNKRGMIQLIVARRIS
Sequence of GRIP2_4, Q9C0E4 (Q9C0E4 446-548): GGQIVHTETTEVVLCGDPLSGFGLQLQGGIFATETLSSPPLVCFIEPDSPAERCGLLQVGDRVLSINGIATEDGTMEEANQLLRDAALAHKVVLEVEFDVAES
Sequence of LNX1_2, Q8TBB1 (Q8TBB1 371-470): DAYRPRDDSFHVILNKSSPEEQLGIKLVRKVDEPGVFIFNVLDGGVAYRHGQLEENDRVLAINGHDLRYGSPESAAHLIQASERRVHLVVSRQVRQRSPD
Sequence of PTPN3, P26045 (P26045 505-587): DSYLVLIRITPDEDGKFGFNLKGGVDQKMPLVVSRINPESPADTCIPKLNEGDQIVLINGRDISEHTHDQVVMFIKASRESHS
Sequence of HTRA1, Q92743 (Q92743 360-477): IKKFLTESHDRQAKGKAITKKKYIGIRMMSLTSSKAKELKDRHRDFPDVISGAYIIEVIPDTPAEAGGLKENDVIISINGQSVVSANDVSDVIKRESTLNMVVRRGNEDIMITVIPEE
Sequence of GRIP2_7, Q9C0E4 (Q9C0E4 934-1023): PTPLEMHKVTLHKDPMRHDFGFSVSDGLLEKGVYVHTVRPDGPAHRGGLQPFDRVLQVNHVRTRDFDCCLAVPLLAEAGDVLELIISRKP
Sequence of IL16_1, Q14005 (Q14005 210-306): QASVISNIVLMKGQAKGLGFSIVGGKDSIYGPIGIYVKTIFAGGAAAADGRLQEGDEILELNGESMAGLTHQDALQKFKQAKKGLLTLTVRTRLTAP
Sequence of FRMPD3, Q5JV73 (Q5JV73 12-100): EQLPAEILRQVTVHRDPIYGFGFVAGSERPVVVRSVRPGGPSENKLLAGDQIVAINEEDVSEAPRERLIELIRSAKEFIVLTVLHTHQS
Sequence of GRID2IP_1, A4D2P6 (A4D2P6 1-87): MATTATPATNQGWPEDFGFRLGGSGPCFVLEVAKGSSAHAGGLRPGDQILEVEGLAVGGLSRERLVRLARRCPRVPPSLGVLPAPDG

Regarding SGGKRKETLV [NET1, Q7Z628], the pKd entry in the experiment with PCLO, Q9Y6V0 (setting [1]) is on record as “below the threshold”; in the experiment with GRIP1_3, Q9Y3R0 (setting [1]) it was “below the threshold”; with MPDZ_12, O75970 (setting [1]) it was “below the threshold”; with PTPN13_1, Q12923 (setting [1]), “below the threshold”; in the experiment with HTRA1, Q92743 (setting [1]) it was “below the threshold”; with APBA3_1, O96018 (setting [1]) it was “below the threshold”. The negative logarithm of the Kd (pKd) in the experiment with LNX2_2, Q8N448 (setting [1]) was 4.66; with LNX2_3, Q8N448 (setting [1]), “below the threshold”; with GRIP2_4, Q9C0E4 (setting [1]), “below the threshold”; with IL16_1, Q14005 (setting [1]), “below the threshold”; with DLG1_1, Q12959 (setting [1]) it was 5.09; with GRIP2_7, Q9C0E4 (setting [1]) it was “below the threshold”. In addition, the pKd with LIN7C, Q9NUP9 (setting [1]) is 4.4; with LNX1_1, Q8TBB1 (setting [1]) it was “below the threshold”; in the experiment with APBA2_2, Q99767 (setting [1]), “below the threshold”; with PARD3_3, Q8TEW0 (setting [1]), “below the threshold”; with SNTG1, Q9NSN8 (setting [1]), 3.83; with SYNJ2BP, P57105 (setting [1]) it was 5.2. The pKd result in the experiment with FRMPD3, Q5JV73 (setting [1]) was “below the threshold”; with ARHGAP21, Q5T5U3 (setting [1]), “below the threshold”; with GRID2IP_1, A4D2P6 (setting [1]), “below the threshold”; with TJP3_3, O95049 (setting [1]), “below the threshold”; with LNX1_2, Q8TBB1 (setting [1]) it was 3.62; with PTPN3, P26045 (setting [1]), 4.66.

In the case of ELKAEDEVQI [DCHS2, Q6V1P9], the pKd entry is “below the threshold” in the experiment with PCLO, Q9Y6V0 (setting [2]); “below the threshold” in the experiment with GRIP1_3, Q9Y3R0 (setting [2]); “below the threshold” with MPDZ_12, O75970 (setting [2]); “below the threshold” in the experiment with PTPN13_1, Q12923 (setting [2]); 4.25 with HTRA1, Q92743 (setting [2]); “below the threshold” with APBA3_1, O96018 (setting [2]). The pKd with LNX2_2, Q8N448 (setting [2]) is 3.71; with LNX2_3, Q8N448 (setting [2]), “below the threshold”; in the experiment with GRIP2_4, Q9C0E4 (setting [2]) it was “below the threshold”; in the experiment with IL16_1, Q14005 (setting [2]), “below the threshold”; in the experiment with DLG1_1, Q12959 (setting [2]) it was “below the threshold”; in the experiment with GRIP2_7, Q9C0E4 (setting [2]) it was “below the threshold”. The pKd entry with LIN7C, Q9NUP9 (setting [2]) is “below the threshold”; in the experiment with LNX1_1, Q8TBB1 (setting [2]), “below the threshold”; in the experiment with APBA2_2, Q99767 (setting [2]), “below the threshold”; in the experiment with PARD3_3, Q8TEW0 (setting [2]), 4.74; with SNTG1, Q9NSN8 (setting [2]), “below the threshold”; with SYNJ2BP, P57105 (setting [2]) it was “below the threshold”. The pKd result with FRMPD3, Q5JV73 (setting [2]) was “below the threshold”; with ARHGAP21, Q5T5U3 (setting [2]) it was 3.92; in the experiment with GRID2IP_1, A4D2P6 (setting [2]), “below the threshold”; with TJP3_3, O95049 (setting [2]), “below the threshold”; in the experiment with LNX1_2, Q8TBB1 (setting [2]), “below the threshold”; with PTPN3, P26045 (setting [2]), “below the threshold”.

Regarding SAPATLSSRA [PDLIM2, Q96JY6], the pKd entry is recorded as “below the threshold” with PCLO, Q9Y6V0 (setting [3]); “below the threshold” in the experiment with GRIP1_3, Q9Y3R0 (setting [3]); “below the threshold” with MPDZ_12, O75970 (setting [3]); “below the threshold” in the experiment with PTPN13_1, Q12923 (setting [3]); “below the threshold” with HTRA1, Q92743 (setting [3]); “below the threshold” with APBA3_1, O96018 (setting [3]). Further, the pKd result is given as “below the threshold” with LNX2_2, Q8N448 (setting [3]); “below the threshold” with LNX2_3, Q8N448 (setting [3]); “below the threshold” with GRIP2_4, Q9C0E4 (setting [3]); “below the threshold” in the experiment with IL16_1, Q14005 (setting [3]); “below the threshold” with DLG1_1, Q12959 (setting [3]); “below the threshold” with GRIP2_7, Q9C0E4 (setting [3]). In addition, the pKd entry with LIN7C, Q9NUP9 (setting [3]) was “below the threshold”; in the experiment with LNX1_1, Q8TBB1 (setting [3]), 3.67; in the experiment with APBA2_2, Q99767 (setting [3]), “below the threshold”; in the experiment with PARD3_3, Q8TEW0 (setting [3]), “below the threshold”; in the experiment with SNTG1, Q9NSN8 (setting [3]) it was “below the threshold”; with SYNJ2BP, P57105 (setting [3]) it was “below the threshold”. Moreover, the pKd result with FRMPD3, Q5JV73 (setting [3]) is “below the threshold”; in the experiment with ARHGAP21, Q5T5U3 (setting [3]), “below the threshold”; with GRID2IP_1, A4D2P6 (setting [3]) it was “below the threshold”; with TJP3_3, O95049 (setting [3]) it was “below the threshold”; in the experiment with LNX1_2, Q8TBB1 (setting [3]), “below the threshold”; with PTPN3, P26045 (setting [3]) it was “below the threshold”.

As to ADENEQVSAV [RAPGEF6, Q8TEU7], the pKd result in the experiment with PCLO, Q9Y6V0 (setting [3]) is “below the threshold”; with GRIP1_3, Q9Y3R0 (setting [3]), “below the threshold”; with MPDZ_12, O75970 (setting [3]) it was “below the threshold”; in the experiment with PTPN13_1, Q12923 (setting [3]), “below the threshold”; with HTRA1, Q92743 (setting [3]), 3.94; in the experiment with APBA3_1, O96018 (setting [3]), “below the threshold”. Also, the pKd entry was “below the threshold” with LNX2_2, Q8N448 (setting [3]); “below the threshold” in the experiment with LNX2_3, Q8N448 (setting [3]); “below the threshold” in the experiment with GRIP2_4, Q9C0E4 (setting [3]); 4.23 with IL16_1, Q14005 (setting [3]); “below the threshold” in the experiment with DLG1_1, Q12959 (setting [3]); “below the threshold” with GRIP2_7, Q9C0E4 (setting [3]). For the same molecule, the pKd entry in the experiment with LIN7C, Q9NUP9 (setting [3]) is “below the threshold”; with LNX1_1, Q8TBB1 (setting [3]), “below the threshold”; in the experiment with APBA2_2, Q99767 (setting [3]), “below the threshold”; with PARD3_3, Q8TEW0 (setting [3]), “below the threshold”; with SNTG1, Q9NSN8 (setting [3]) it was 4.07; in the experiment with SYNJ2BP, P57105 (setting [3]) it was 3.74. Also, the pKd entry with FRMPD3, Q5JV73 (setting [3]) is “below the threshold”; with ARHGAP21, Q5T5U3 (setting [3]) it was “below the threshold”; with GRID2IP_1, A4D2P6 (setting [3]), “below the threshold”; in the experiment with TJP3_3, O95049 (setting [3]), “below the threshold”; with LNX1_2, Q8TBB1 (setting [3]), “below the threshold”; with PTPN3, P26045 (setting [3]), 4.3.

The pKd is −log10 of the Kd, conventionally taken in molar units.
